Experiments:
[1] = target: T1, EpCAM (native, on primary lung cancer cells) (Homo sapiens (patient NSCLC tumor cells)) (UniProt P16422); assay: flow cytometry (cell binding); settings: apparent Kd on whole primary lung cancer cells; 1-300 nM aptamer; DPBS, 25 °C, 30 min; cells (3×10^5) pre-incubated with 1 ng/uL salmon sperm DNA; DNA pools/library heated to 95 °C 5 min then on ice 10 min; pH not stated
T1 sequence: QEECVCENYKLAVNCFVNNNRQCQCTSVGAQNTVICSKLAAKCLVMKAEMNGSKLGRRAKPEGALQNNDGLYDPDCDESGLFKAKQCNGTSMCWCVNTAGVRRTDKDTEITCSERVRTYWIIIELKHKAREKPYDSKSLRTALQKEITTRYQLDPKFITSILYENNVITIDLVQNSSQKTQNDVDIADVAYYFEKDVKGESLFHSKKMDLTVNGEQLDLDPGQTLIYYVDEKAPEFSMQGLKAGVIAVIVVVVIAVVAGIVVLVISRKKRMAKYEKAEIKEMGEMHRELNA

[2] = target: T1, EpCAM (native, on primary lung cancer cells) (Homo sapiens (patient NSCLC tumor cells)); assay: competition (flow cytometry); settings: DPBS, 25 °C, 30 min; cells (3×10^5) pre-incubated with 1 ng/uL salmon sperm DNA; DNA pools/library heated to 95 °C 5 min then on ice 10 min; pH not stated

| Sequence | Kd [1] [nM] | binding signal (% displaced by antibody) [2] | binding signal (% of cells releasing aptamer) [2] |
| --- | --- | --- | --- |
| CTCCTCTGACTGTAACCACGACACGCACAAATGTCAGTGTACCGCACTCGCACATTCTTAGCATAGGTAGTCCAGAAGCC [EPCAM-APT-01 (ECM_01)] | 25 | 15 |  |
| CTCCTCTGACTGTAACCACGGTGCGCGTACCACCATGTGTACACACTGCATGTTTGGTTAGCATAGGTAGTCCAGAAGCC [EPCAM-APT-02 (ECM_02)] | 15 |  | 18 |

— paper PMC6468627
